Test results taken from patent EP4631974A1.
Where two headings read alike, the source gives them in different places.

What was measured:
[1] = target: RSV A2 pre-F protein (respiratory syncytial virus (RSV) A2) (UniProt P03420); assay: ELISA, plate-coated RSV A2 pre-F, anti-human IgG Fc-HRP detection
[2] = target: RSV A2 pre-F protein (respiratory syncytial virus (RSV) A2) (UniProt P03420); assay: BLI (Octet R8), RSV A2 pre-F captured on HIS1K sensor, antibody in solution
[3] = target: RSV A2 pre-F protein (respiratory syncytial virus (RSV) A2) (UniProt P03420); assay: as above; remark: listed apart in the source
[4] = target: RSV A2 pre-F protein (respiratory syncytial virus (RSV) A2) (UniProt P03420); assay: ELISA, plate-coated RSV A2 pre-F, anti-human IgG Fc-HRP detection (2-fold dilutions from 1 ug/mL)

Substance: MEDI8897 (antibody)
- EC50 [1]: 0.0313 µg/mL
- Kd [2]: 0.379 nM
- Kd [3]: 0.122 nM
- EC50 [4]: 0.0146 µg/mL
